From patent US12281162 (LANOVA MEDICINES DEVELOPMENT, dated 2025)

Target: T1, human G-protein-coupled receptor family C group 5 member D (GPRC5D) (human, UniProt Q9NZD1 1-345)
T1 construct: whole, on cells; also called human GPRC5D protein
Assay: FACS, CHO-K1/GPRC5D

T1 sequence (Q9NZD1 whole entry): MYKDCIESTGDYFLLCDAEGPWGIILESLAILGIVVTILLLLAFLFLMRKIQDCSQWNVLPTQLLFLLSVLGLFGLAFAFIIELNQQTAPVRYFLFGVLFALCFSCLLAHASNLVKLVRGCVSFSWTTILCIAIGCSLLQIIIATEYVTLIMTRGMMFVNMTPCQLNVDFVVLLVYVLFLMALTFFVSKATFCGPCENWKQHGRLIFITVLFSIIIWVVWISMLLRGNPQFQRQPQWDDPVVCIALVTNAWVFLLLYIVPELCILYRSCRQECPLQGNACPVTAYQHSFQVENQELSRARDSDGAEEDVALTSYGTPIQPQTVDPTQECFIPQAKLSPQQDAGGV

Bottom | LogEC50 | Span | Top | Binder
4840 | 0.345 | 103000 | 108000 | 58-H2L2 (antibody, V domains shown, humanized 58F9G10, VH v2 x VL v2) VH: QVQLVQSGAEVKKPGASVKVSCKASGYSFTGYYIHWVRQAPGQGLEWIGYISSYNAATSFNQKFKGRVTFTVDTSTSTVYMELSSLRSEDTAVYYCARTELRGPWFAYWGQGTLVTVSS VL: DTQMTQSPSSLSASVGDRVTITCSASSSVSYMNWYQQKPGKAPKRLIYDTSKLASGVPSRFSGSGSGTDYTLTISSLQPEDFATYYCQQWSNNPLTFGQGTKLEIK
3620 | 0.378 | 106000 | 110000 | 58-H2L1 (antibody, V domains shown, humanized 58F9G10, VH v2 x VL v1) VH: QVQLVQSGAEVKKPGASVKVSCKASGYSFTGYYIHWVRQAPGQGLEWIGYISSYNAATSFNQKFKGRVTFTVDTSTSTVYMELSSLRSEDTAVYYCARTELRGPWFAYWGQGTLVTVSS VL: DIQMTQSPSSLSASVGDRVTITCSASSSVSYMNWYQQKPGKAPKLLIYDTSKLASGVPSRFSGSGSGTDFTLTISSLQPEDFATYYCQQWSNNPLTFGQGTKLEIK
5500 | 0.263 | 109000 | 114000 | 58-H1L2 (antibody, V domains shown, humanized 58F9G10, VH v1 x VL v2) VH: QVQLVQSGAEVKKPGASVKVSCKASGYSFTGYYIHWVRQAPGQGLEWMGYISSYNAATSFNQKFKGRVTMTRDTSTSTVYMELSSLRSEDTAVYYCARTELRGPWFAYWGQGTLVTVSS VL: DTQMTQSPSSLSASVGDRVTITCSASSSVSYMNWYQQKPGKAPKRLIYDTSKLASGVPSRFSGSGSGTDYTLTISSLQPEDFATYYCQQWSNNPLTFGQGTKLEIK
4230 | 0.231 | 101000 | 105000 | 58-H1L3 (antibody, V domains shown, humanized 58F9G10, VH v1 x VL v3) VH: QVQLVQSGAEVKKPGASVKVSCKASGYSFTGYYIHWVRQAPGQGLEWMGYISSYNAATSFNQKFKGRVTMTRDTSTSTVYMELSSLRSEDTAVYYCARTELRGPWFAYWGQGTLVTVSS VL: DTQLTQSPSSLSASVGDRVTMTCSASSSVSYMNWYQQKPGKAPKRLIYDTSKLASGVPSRFSGSGSGTDYTLTISSMQPEDFATYYCQQWSNNPLTFGQGTKLEIK

Target: T1, human G-protein-coupled receptor family …
Assay: FACS, CHO-K1/human GPRC5D, hybridoma supernatant
Protocol: Antibodies harvested from the supernatants of the hybridomas were tested for their binding to the human GPRC5D protein expressed on CHO K1 cells was tested. CHO—K1 cells stably expressed human GPRC5D, were harvested from flasks. 100 µl of 1×10^6 cells/ml of cells were incubated with murine antibodies in 3-fold serial dilutions for 30 minutes on ice. After being washed with 200 µl of FACS buffer twice, cells were incubated with secondary antibody for 30 minutes on ice. Cells were washed with 200 µl of FACS buffer twice and transferred to BD Falcon 5 ml tube and analyzed by FACS.

Bottom | LogEC50 | Span | Top | Binder
6870 | 0.912 | 1.42e+06 | 1.43e+06 | 6G10D9 (antibody, V domains shown, murine antibody from hybridoma supernatant) VH: QVQLQQSGAELARPGASVKMSCKASGYTFTTYTMHWVKQRPGQGLEWLGYINPSSGYTNYNQKFKDKATLTAGKSSSTAYMQLSSLTSEDSAVYYCASLRSRGYFDYWGQGTTLTVSS VL: DIVMTQSQTFMSTSVGDRVRITCKASQNVGTAVVWYQQKTGQSPRLLIYSASNRYTGVPDRFTGSGSGTDFTLTISNMQSEDLADFFCQQYSSYPYTFGGGTKLEIK
24000 | 0.947 | 1.76e+06 | 1.79e+06 | 38A10E9A11 (antibody, V domains shown, murine antibody from hybridoma supernatant) VH: QVQLQQSGAELARPGASVKMSCKASGYTFTTYTMHWVKQRPGQGLEWIGYINPSSGYTNYNQKFKDKATLTAGKSSSTAYMQLSSLTSEDSAVYYCASLRSRGYFDYWGRGTTLTVSS VL: DIVMTQSQKFLSTSVGDRVSITCKASQNVGTAVAWYQQKPGQSPKLLIYSASNRYTGVPDRFTGSGSGTDFTLTISNMQSEDLAGYFCQQYSSYPYTFGGGTKLEIK
5570 | 0.993 | 723000 | 729000 | 14C2A11C6 (antibody, V domains shown, murine antibody from hybridoma supernatant; also called 14C2A1106) VH: QVHLQQSGAELARPGASVKMSCKASGYTFTTYTMHWVKQRPGQGLEWIGYINPNSAYTNYNQKFKDKATLTADKSSSTAYMQLSSLTSEDSAVYYCARRVLLLRVLDFFDYWGQGTTLTVSS VL: DVQITQSPSYLAASPGETITINCRASKSINKYLTWYQEKPGKTNKLLIYSGSTLQSGIPSRFSGSGSGSDFTLTISSLEPEDFAMYYCQQHNEYPLTFGTGTKLELK
46100 | 0.454 | 789000 | 835000 | 2D3C12 (antibody, V domains shown, murine antibody from hybridoma supernatant) VH: QVQLQQSGAELVRPGTSVKVSCKASGYAFINYLIEWIKQRPGQGLEWIGMINPGSGGTNYNEKFKDKATLTADKSSSTAYMQLSSLTSDDSAVYFCARNWDVWGQGTTLTVSS VL: DVVMTQSPLSLPVSLGDQASVSCRSSQSLVHSTGNTYLHWYLQKPGQSPKLLIYKVSNRFSGVPDRFSGSGSGTDFTLKISRVEAEDLGVYFCSQSTHVPWTFGGGTKLEIK
57000 | 0.654 | 1.45e+06 | 1.51e+06 | 21C3C11B3 (antibody, V domains shown, murine antibody from hybridoma supernatant) VH: QVQLQQSGAELVRPGTSVKVSCKASGYAFINYLIEWIKQRPGQGLEWIGMINPGSGGTNYNEKFKDKATLTADKSSSTAYMQLSSLTSDDSAVYFCARNWDVWGQGTTLTVSS VL: DVVMTQSPLSLPVSLGDQASVSCRSSQSLVHSTGNTYLHWYLQKPGQSPKLLIYKVSNRFSGVPDRFSGSGSGTDFTLKISRVEAEDLGVYFCSQSTHVPWTFGGGTKLEIK
2740 | 1.02 | 919000 | 922000 | 34D4A10 (antibody, V domains shown, murine antibody from hybridoma supernatant) VH: QVQLQQSGAELVRPGTSVKVSCKASGYAFISYLIEWIKQRPGQGLEWIGMINPGSGGTNYNEKFKDKATLTADKSSSTAYMQLSSLTSDDSAVYFCARNWDVWGQGTTLTVSS VL: DVVMTQSPLSLPVSLGDQASVSCRSSQSLVHSTGNTYLHWYLQKPGQSPKLLIYKVSNRFSGVPDRFSGSGSGTDFTLKISRVEAEDLGVYFCSQSTHVPWTFGGGTKLEIK
-14700 | 0.964 | 2.07e+06 | 2.05e+06 | 58F9G10 (antibody, V domains shown, murine antibody from hybridoma supernatant) VH: EVQLQQSGPELVKTGASVKISCKASGYSFTGYYIHWVKQSHGKSLEWIGYISCYNGATSFNQKFKGKATFTVDTSSSTAYMQFNSLTSEDSAVYYCARTELRGPWFAYWGQGTLVTVSA VL: QTVLTQSPAIMSASPGEKVTMTCSASSSVSYMNWYQQKSGTSPKRWIYDTSKLASGVPARFSGSGSGTSYSLTISSMEAEDAATYYCQQWSNNPLTFGAGTKLELK
25400 | 0.511 | 1.17e+06 | 1.2e+06 | 40A5B2 (antibody, V domains shown, murine antibody from hybridoma supernatant) VH: EVQLQQSGPELVKPGASVKMSCKASGYTFTRNIMHWVKQKPGQGLEWIGYINPYNAGSKYNEKFKGKATLTSDISSSTAYMELSSLTSEDSAVYYCAREEVYYRYGAWFAYWGHGTLVTVSA VL: DIVLTQSPASLAVSLGQRATISCRASQSVSTSSYSYMHWYQQKPGQPPKLLIKYASNLESGVPARFSGSGSGTDFTLNIHPVEEEDTATYYCQHSWEIPRTFGGGTKLEIK
10900 | 0.592 | 1.75e+06 | 1.76e+06 | 37B9C4 (antibody, V domains shown, murine antibody from hybridoma supernatant) VH: EVNLEESGGGLVQPGGSMKLSCVASGFTFSDYWMNWVRQSPEKGLEWVAEIRLKSNNYATHYAESVKGRFTISRDDSKSSVYLQMNNLRAEDTGIYYCTRPLLWFRRYYAMDYWGQGTSVTVSS VL: DIQMTQTTSSLSASLGDRITISCSASQGISNYLNWYQQKPDGTVKLLIYYTSSLHSGVPSRFSGSGSGTDYSLTISNLEPADIATYYCQQYSKLPFTFGSGTKLEIK
-13300 | 0.884 | 1.43e+06 | 1.41e+06 | 34D3H1 (antibody, V domains shown, murine antibody from hybridoma supernatant) VH: EVHLVESGGDLVKPGGSLKLSCAASGFTFSSYGMSWVRQTPDKRLEWVATISSGGSYTYYPDSVKGRFTISRDNAKNTLNLQMSSLKSEDTAMYYCARQGGDAMDYWGQGTSVTVSS VL: DIVLTQSPATLSVTPGDSVSLSCRASQSINNNLHWYQQKSHESPRLLIKYASQSISGIPSRFSGSGSGTDFTLSINSVETEDFGMYFCQQSNSRLTFGAGTKLELK
68600 | 0.62 | 1.54e+06 | 1.61e+06 | 29B2C10 (antibody, V domains shown, murine antibody from hybridoma supernatant) VH: EVQLQQSGPELVKPGASMKLSCKASGYSFTGYTMHWVKQSHGENLEWIGLINPYNGGTNYNQKFKGKATLTVDKSSSTAYMELLSLTSEDSAVYYCSRWGLRRAMDYWGQGTSVTVSS VL: DIVMTQSQKFMSTSVGDRVSVTCKASQNVGSNVAWYQQKPGQSPKALIYSASYRYSGVPDRFTGNGSGTDFTLTISNVQSEDLAEYFCQQYYNSPWTFGGGTKLEIK
43400 | 0.738 | 1.42e+06 | 1.46e+06 | 29A7H11H4C12 (antibody, V domains shown, murine antibody from hybridoma supernatant) VH: EVQLQQSGPELVKPGASMKISCKASGYSFTGYTMHWVKQSHGENLEWIGLINPYNGGTNYNQKFKGKATLTVDKSSSTAYMELLSLTSEDSAVYYCSRWGLRRAMDYWGQGTSVTVSS VL: DIVMTQSQKFMSTSIGDRVSVTCKASQNVGSNVAWYQQKPGQSPKALIYSASYRYSGVPDRFTGNGSGTDFTLTISNVQSEDLAEYFCQQYYNSPWTFGGGTKLEIK
20400 | 0.874 | 852000 | 873000 | 14F3H2 (antibody, V domains shown, murine antibody from hybridoma supernatant) VH: EVQLQQSGPELVKPGASMKISCKASGYSFTGYTMNWVKQSHGKNLEWIGLINPYNGGIRYNQKFKGKATLTVDKSSSTAYMELLSLTSEDSAVYYCARWGLRRAMDYWGQGTSVTVSS VL: DIVMTQSQKFMSTSVGDRVSVTCKASQNVGTNVAWYQQKPGQSPKALIYSASYRYSGVPDRFTGSGSGTDFTLTISNVQSEDLAEYFCQQYNSSPWTFGGGTKLEIK
52700 | 0.225 | 625000 | 678000 | 26E1D12 (antibody, V domains shown, murine antibody from hybridoma supernatant) VH: EVQLQQSGPELVKPGASMKISCKASGYSFTGYTMNWVKQSHGKNLEWIGLINPYNGGTNYNQKFKGKATLAVDKSSSTAYMDLLSLTSEDSAVYYCSRWGLRRAMDYWGQGTSVTVSS VL: DIVMTQSQKFMSTSVGDRVSVTCKASQNVGSNVAWYQQKPGQSPKALIYSASYRYSGVPDRFTGSGSGTDFTLTISNVQSEDLAEYFCQQYNNSPWTFGGGTKLEIK
